According to patent US20140087995A1 (published 2014):
Numbered stars: 1 amine (or outer) side, 2 acyl side, 3 side chain; on linkers, the order of the positions; unused ones are H or OH. Bridge positions count the residues as written; N and C are the ends. Side chains are listed from the residue outwards. Ends that are not written are not given here. * marks the point of attachment. C20 diacid = O=C(O)CCCCCCCCCCCCCCCCCCC(=O)*; γGlu = O=C(O)[C@H](CCC(=O)[*:2])N[*:1]

B1: N^α1-[2-[2-[2-[[2-[2-[2-[[(4S)-4-carboxy-4-(19-carboxynonadecanoylamino)butanoyl]amino]ethoxy]ethoxy]acetyl]amino]ethoxy]ethoxy]acetyl]-[Arg17,Pro21,Pro27]-h-am … (peptide)
peptide: KCNTATCATQRLANFLRHSSPNFGAIPSSTNVGSNTY
modifications: C20 diacid-gGlu-2xOEG on the alpha amino group of the N-terminal residue; disulfide bridge Cys2-Cys7; C-terminal amide
notes: also called compound 24
B2: N^α1-[(4S)-4-carboxy-4-(19-carboxynonadecanoylamino)butanoyl]-[Arg17,Pro21,Pro27,Lys35]-h-amylin (peptide)
peptide: KCNTATCATQRLANFLRHSSPNFGAIPSSTNVGSKTY
modifications: C20 diacid-gGlu on the alpha amino group of the N-terminal residue; disulfide bridge Cys2-Cys7; C-terminal amide
notes: also called compound 34
B3: N^α1-[(4S)-4-carboxy-4-(19-carboxynonadecanoylamino)butanoyl]-[Arg17,Pro21,Pro27,Pro34,Glu35]-h-amylin (peptide)
peptide: {C20 diacid-γGlu}-KCNTATCATQRLANFLRHSSPNFGAIPSSTNVGPETY-NH2
modifications: disulfide 2-7
SMILES: CC[C@H](C)[C@H](NC(=O)[C@H](C)NC(=O)CNC(=O)[C@H](Cc1ccccc1)NC(=O)[C@H](CC(N)=O)NC(=O)[C@@H]1CCCN1C(=O)[C@H](CO)NC(=O)[C@H](CO)NC(=O)[C@H](Cc1c[nH]cn1)NC(=O)[C@H](CCCNC(=N)N)NC(=O)[C@H](CC(C)C)NC(=O)[C@H](Cc1ccccc1)NC(=O)[C@H](CC(N)=O)NC(=O)[C@H](C)NC(=O)[C@H](CC(C)C)NC(=O)[C@H](CCCNC(=N)N)NC(=O)[C@H](CCC(N)=O)NC(=O)[C@@H](NC(=O)[C@H](C)NC(=O)[C@@H]1CSSC[C@H](NC(=O)[C@H](CCCCN)NC(=O)CC[C@H](NC(=O)CCCCCCCCCCCCCCCCCCC(=O)O)C(=O)O)C(=O)N[C@@H](CC(N)=O)C(=O)N[C@@H]([C@@H](C)O)C(=O)N[C@@H](C)C(=O)N[C@@H]([C@@H](C)O)C(=O)N1)[C@@H](C)O)C(=O)N1CCC[C@H]1C(=O)N[C@@H](CO)C(=O)N[C@@H](CO)C(=O)N[C@H](C(=O)N[C@@H](CC(N)=O)C(=O)N[C@H](C(=O)NCC(=O)N1CCC[C@H]1C(=O)N[C@@H](CCC(=O)O)C(=O)N[C@H](C(=O)N[C@@H](Cc1ccc(O)cc1)C(N)=O)[C@@H](C)O)C(C)C)[C@@H](C)O
notes: also called compound 29
B4: N^α1-[(4S)-4-carboxy-4-(19-carboxynonadecanoylamino)butanoyl]-[Glu14,Arg17,Pro21,Pro27,His34]-h-amylin (peptide)
peptide: {C20 diacid-γGlu}-KCNTATCATQRLAEFLRHSSPNFGAIPSSTNVGHNTY-NH2
modifications: disulfide 2-7
SMILES: CC[C@H](C)[C@H](NC(=O)[C@H](C)NC(=O)CNC(=O)[C@H](Cc1ccccc1)NC(=O)[C@H](CC(N)=O)NC(=O)[C@@H]1CCCN1C(=O)[C@H](CO)NC(=O)[C@H](CO)NC(=O)[C@H](Cc1c[nH]cn1)NC(=O)[C@H](CCCNC(=N)N)NC(=O)[C@H](CC(C)C)NC(=O)[C@H](Cc1ccccc1)NC(=O)[C@H](CCC(=O)O)NC(=O)[C@H](C)NC(=O)[C@H](CC(C)C)NC(=O)[C@H](CCCNC(=N)N)NC(=O)[C@H](CCC(N)=O)NC(=O)[C@@H](NC(=O)[C@H](C)NC(=O)[C@@H]1CSSC[C@H](NC(=O)[C@H](CCCCN)NC(=O)CC[C@H](NC(=O)CCCCCCCCCCCCCCCCCCC(=O)O)C(=O)O)C(=O)N[C@@H](CC(N)=O)C(=O)N[C@@H]([C@@H](C)O)C(=O)N[C@@H](C)C(=O)N[C@@H]([C@@H](C)O)C(=O)N1)[C@@H](C)O)C(=O)N1CCC[C@H]1C(=O)N[C@@H](CO)C(=O)N[C@@H](CO)C(=O)N[C@H](C(=O)N[C@@H](CC(N)=O)C(=O)N[C@H](C(=O)NCC(=O)N[C@@H](Cc1c[nH]cn1)C(=O)N[C@@H](CC(N)=O)C(=O)N[C@H](C(=O)N[C@@H](Cc1ccc(O)cc1)C(N)=O)[C@@H](C)O)C(C)C)[C@@H](C)O
notes: also called compound 17
B5: N^α1-[(4S)-4-carboxy-4-(19-carboxynonadecanoylamino)butanoyl]-[Glu14,Arg17,Pro21,Pro27,Pro34]-h-amylin (peptide)
peptide: {C20 diacid-γGlu}-KCNTATCATQRLAEFLRHSSPNFGAIPSSTNVGPNTY-NH2
modifications: disulfide 2-7
SMILES: CC[C@H](C)[C@H](NC(=O)[C@H](C)NC(=O)CNC(=O)[C@H](Cc1ccccc1)NC(=O)[C@H](CC(N)=O)NC(=O)[C@@H]1CCCN1C(=O)[C@H](CO)NC(=O)[C@H](CO)NC(=O)[C@H](Cc1c[nH]cn1)NC(=O)[C@H](CCCNC(=N)N)NC(=O)[C@H](CC(C)C)NC(=O)[C@H](Cc1ccccc1)NC(=O)[C@H](CCC(=O)O)NC(=O)[C@H](C)NC(=O)[C@H](CC(C)C)NC(=O)[C@H](CCCNC(=N)N)NC(=O)[C@H](CCC(N)=O)NC(=O)[C@@H](NC(=O)[C@H](C)NC(=O)[C@@H]1CSSC[C@H](NC(=O)[C@H](CCCCN)NC(=O)CC[C@H](NC(=O)CCCCCCCCCCCCCCCCCCC(=O)O)C(=O)O)C(=O)N[C@@H](CC(N)=O)C(=O)N[C@@H]([C@@H](C)O)C(=O)N[C@@H](C)C(=O)N[C@@H]([C@@H](C)O)C(=O)N1)[C@@H](C)O)C(=O)N1CCC[C@H]1C(=O)N[C@@H](CO)C(=O)N[C@@H](CO)C(=O)N[C@H](C(=O)N[C@@H](CC(N)=O)C(=O)N[C@H](C(=O)NCC(=O)N1CCC[C@H]1C(=O)N[C@@H](CC(N)=O)C(=O)N[C@H](C(=O)N[C@@H](Cc1ccc(O)cc1)C(N)=O)[C@@H](C)O)C(C)C)[C@@H](C)O
notes: also called compound 32
B6: N^ε1-[(4S)-4-carboxy-4-[[(4S)-4-carboxy-4-(19-carboxynonadecanoylamino)butanoyl]amino]butanoyl]-[Asp14,Arg17,Pro21,Pro27,Asp35]-h-amylin (peptide)
peptide: K([γGlu-γGlu-C20 diacid])CNTATCATQRLADFLRHSSPNFGAIPSSTNVGSDTY-NH2
modifications: disulfide 2-7; N-terminus assumed
SMILES: CC[C@H](C)[C@H](NC(=O)[C@H](C)NC(=O)CNC(=O)[C@H](Cc1ccccc1)NC(=O)[C@H](CC(N)=O)NC(=O)[C@@H]1CCCN1C(=O)[C@H](CO)NC(=O)[C@H](CO)NC(=O)[C@H](Cc1c[nH]cn1)NC(=O)[C@H](CCCNC(=N)N)NC(=O)[C@H](CC(C)C)NC(=O)[C@H](Cc1ccccc1)NC(=O)[C@H](CC(=O)O)NC(=O)[C@H](C)NC(=O)[C@H](CC(C)C)NC(=O)[C@H](CCCNC(=N)N)NC(=O)[C@H](CCC(N)=O)NC(=O)[C@@H](NC(=O)[C@H](C)NC(=O)[C@@H]1CSSC[C@H](NC(=O)[C@@H](N)CCCCNC(=O)CC[C@H](NC(=O)CC[C@H](NC(=O)CCCCCCCCCCCCCCCCCCC(=O)O)C(=O)O)C(=O)O)C(=O)N[C@@H](CC(N)=O)C(=O)N[C@@H]([C@@H](C)O)C(=O)N[C@@H](C)C(=O)N[C@@H]([C@@H](C)O)C(=O)N1)[C@@H](C)O)C(=O)N1CCC[C@H]1C(=O)N[C@@H](CO)C(=O)N[C@@H](CO)C(=O)N[C@H](C(=O)N[C@@H](CC(N)=O)C(=O)N[C@H](C(=O)NCC(=O)N[C@@H](CO)C(=O)N[C@@H](CC(=O)O)C(=O)N[C@H](C(=O)N[C@@H](Cc1ccc(O)cc1)C(N)=O)[C@@H](C)O)C(C)C)[C@@H](C)O
notes: also called compound 2

Experiments:
[1] = target: T1, human amylin receptor (amylin 3(a) receptor: human calcitonin receptor plus RAMP-3) (human, UniProt P30988 25-474; O60896 24-148); test: SPA competition binding, membranes with human amylin 3(a) receptor, displacement of 125I-rat amylin (Assay V)
T1 construct: whole, on cells; the species of RAMP-3 is told only through the name 'human amylin receptor'; also called hAmylin-R; hAmylinR
T1 sequence (looked up) 1: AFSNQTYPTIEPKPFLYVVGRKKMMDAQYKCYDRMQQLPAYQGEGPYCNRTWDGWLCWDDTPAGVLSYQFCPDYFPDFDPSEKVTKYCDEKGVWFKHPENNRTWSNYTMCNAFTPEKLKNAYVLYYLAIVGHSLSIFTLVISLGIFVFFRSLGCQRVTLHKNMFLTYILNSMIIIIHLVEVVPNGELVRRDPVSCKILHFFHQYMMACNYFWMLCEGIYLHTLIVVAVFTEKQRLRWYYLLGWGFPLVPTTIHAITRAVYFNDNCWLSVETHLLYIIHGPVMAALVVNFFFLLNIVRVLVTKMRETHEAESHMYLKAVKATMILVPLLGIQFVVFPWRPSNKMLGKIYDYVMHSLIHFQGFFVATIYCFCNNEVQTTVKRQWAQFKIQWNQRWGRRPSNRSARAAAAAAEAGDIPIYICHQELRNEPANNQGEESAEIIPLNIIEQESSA
T1 sequence (looked up) 2: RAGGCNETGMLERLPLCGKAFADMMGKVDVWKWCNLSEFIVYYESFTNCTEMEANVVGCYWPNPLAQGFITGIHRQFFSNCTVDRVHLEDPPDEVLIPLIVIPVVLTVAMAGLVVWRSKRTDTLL
Method: The binding assay was performed using scintillation proximity assay (SPA) beads (RPNQ0001) from PerkinElmer and cell membranes from the Amylin 3(a)/CRE-luc cells (as described in Assay (II)) were used. Membranes were prepared in the following way; the cells were rinsed with PBS and incubated with Versene for approximately 5 min before harvesting. The cells were flushed with PBS and the cell-suspension was centrifuged for 5 min at 1000 rpm. Cells were homogenized (ultrathurrax) in a buffer containing 20 mM Na-HEPES and 10 mM EDTA (pH 7.4) and centrifuged at 20.000 rpm for 15 min. The resulting pellet was resuspended, homogenized and centrifuged (20.000 rpm, 15 min) in a buffer containing 20 mM Na-HEPES and 0.1 mM EDTA (pH 7.4, buffer 2). The resulting pellet was resuspended in buffer 2 and protein concentration was measured (BCA protein Assay, Pierce). The homogenate was kept cold during the whole procedure. The membranes were kept at −80° C. until use. The assay was performed in a 384 well Optiplate (PerkinElmer) in a total volume of 40 ul. Membranes were mixed with SPA beads. Final concentration of membranes 35 ng/μL final and SPA beads was 0.05 mg/well. Test-compounds were dissolved in DMSO and further diluted in assay buffer (50 mM Hepes, pH 7.4, 1 mM CaCl2, 5 mM MgCl₂, 0.1% OA and 0.02% Tween20). […] The final mixture was incubated with shaking at 400 rpm for 120 min at 25° C. prior to centrifugation (1500 rpm, 10 min). Samples were analyzed on TopCounter™ (Packard). The IC₅₀ was calculated using (one site binding competition analysis) GraphPad Prism5 as a measure of receptor affinity.

[2] = target: T2, human calcitonin receptor (human, UniProt P30988 25-474); test: ratio of IC50 at hCTR to IC50 at the human amylin receptor (reference)
T2 construct: whole, on cells; also called hCTR; hCT
T2 sequence (looked up): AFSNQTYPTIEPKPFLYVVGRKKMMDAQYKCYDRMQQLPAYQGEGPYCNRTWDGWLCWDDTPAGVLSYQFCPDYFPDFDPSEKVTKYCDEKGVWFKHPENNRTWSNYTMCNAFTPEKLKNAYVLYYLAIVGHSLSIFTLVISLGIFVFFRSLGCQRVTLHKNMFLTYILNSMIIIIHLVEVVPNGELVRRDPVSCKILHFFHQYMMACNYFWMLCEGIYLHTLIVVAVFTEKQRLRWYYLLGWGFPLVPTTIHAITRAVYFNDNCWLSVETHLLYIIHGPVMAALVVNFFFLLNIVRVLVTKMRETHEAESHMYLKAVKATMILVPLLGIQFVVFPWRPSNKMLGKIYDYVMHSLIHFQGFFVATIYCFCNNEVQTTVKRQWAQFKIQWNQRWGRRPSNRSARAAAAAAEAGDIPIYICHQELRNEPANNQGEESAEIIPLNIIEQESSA
Method in brief: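 Competition binding by SPA uses membrane preparations (35 ng/μL final) in pH 7.4 Hepes buffer with 1 mM CaCl2 and 5 mM MgCl₂. Incubation lasts 120 min at 25° C, and IC₅₀ comes from one-site fitting.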

[3] = target: T2, human calcitonin receptor; test: SPA competition binding, membranes with human calcitonin receptor, displacement of 125I-calcitonin (Assay VII)
Method in brief: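 BHK hCTR membranes 35 ng/μL + SPA beads 0.05 mg/well; buffer 50 mM Hepes pH 7.4, 1 mM CaCl2, 5 mM MgCl₂, 0.1% OA, 0.02% Tween20. 120 min, 25° C., shaking. Scintillation count; IC50 by one-site binding competition.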

Binder | IC50 [1] | Ratio hCT/hAmylin binding [2] | IC50 [3]
B1 | 1.14 nM | 90 | 102 nM
B2 | 1.14 nM | 64.4 | 73.4 nM
B3 | 0.577 nM | 13.9 | 8.01 nM
B4 | 0.878 nM | 12.5 | 10.9 nM
B5 | 0.1 nM | 10.9 | 1.09 nM
B6 | 0.411 nM | 47.5 | 19.5 nM
